Test results: US20180265850A1

How the values were obtained:
[1] = biological target: FRB (11 kD, PDB access number: 1AUE A) (UniProt P42345); assay: cell-based or functional assay
[2] = biological target: human FKBP (12 kD, GenBank accession number: AAP36774.1) (human) (UniProt P62942); assay: cell-based or functional assay
human FKBP (12 kD, GenBank accession number: AAP36774.1) (human), sequence (P62942 whole entry): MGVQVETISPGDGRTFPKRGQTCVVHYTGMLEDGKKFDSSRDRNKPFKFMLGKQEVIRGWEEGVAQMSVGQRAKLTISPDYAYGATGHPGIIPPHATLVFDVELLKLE

human FKBP (12 kD, GenBank accession number: AAP36774.1), sequence (P62942 whole entry): as above

Substance | optical intensity of probe TPv1.3 (printed 'TPv11.3'; FKBP-ALuc23(1-212)-FRB) with 10^-6 M rapamycin (fraction of intensity without rapamycin) [1] | optical intensity of probe TPv1.7 (FKBP-ALuc30(1-212)-FRB) with 10^-6 M rapamycin (fraction of intensity without rapamycin) [1] | bioluminescence intensity of probe TPv2.4 (printed 'TPv2') in COS-7 lysate, 10^-6 M rapamycin vs vehicle [2] | bioluminescence of living COS-7 cells expressing TPv2.4 on a microslide, 10^-6 M rapamycin vs control [2] | bioluminescence of probe TPv2.7 (FRB-ALuc30(1-212)-FKBP), 10^-6 M rapamycin vs vehicle [2] | bioluminescence of probe TPv2.8 (FRB-ALuc30(19-212)-FKBP), 10^-6 M rapamycin vs vehicle [2] | luminescence intensity of cells expressing TPv2.4, 10^-6 M rapamycin [2]
human FKBP (12 kD, GenBank accession number: AAP36774.1) (from UniProt P62942 1-108) | 0.33 | 0.33 | – | – | – | – | –
FRB (11 kD, PDB access number: 1AUE A) (from UniProt P42345 2015-2114) | – | – | 6.7 fold | 6 fold | 2 fold | 2 fold | 5.4 fold
